Data as given in patent publication US20180002740.

Test system: VanR (phosphorylated) (Streptomyces coelicolor M600)
Assay: cell_activity
Conditions: indirect: growth arrest about 18 h with 20 ug/ml vancomycin; 64 pM little effect

For “ATATCTATATGAAGCGACGTGGTCGATGAGCCGCAGCGTTTTCGCTGCGGCTCATCGACCACGTCGCTTCATATAGATATAGTTTTCT [vanH5 dumbbell decoy]”, the activity was 256 pM.
